The text below walks through data of publication PMC10770428 (Current Research in Structural Biology, 2023).

To fix the notation:
T1: C-terminal FH1-FH2 FMN1 (amino acids 870–1466) (mouse, UniProt Q05860 870-1466)
T1 sequence (looked up): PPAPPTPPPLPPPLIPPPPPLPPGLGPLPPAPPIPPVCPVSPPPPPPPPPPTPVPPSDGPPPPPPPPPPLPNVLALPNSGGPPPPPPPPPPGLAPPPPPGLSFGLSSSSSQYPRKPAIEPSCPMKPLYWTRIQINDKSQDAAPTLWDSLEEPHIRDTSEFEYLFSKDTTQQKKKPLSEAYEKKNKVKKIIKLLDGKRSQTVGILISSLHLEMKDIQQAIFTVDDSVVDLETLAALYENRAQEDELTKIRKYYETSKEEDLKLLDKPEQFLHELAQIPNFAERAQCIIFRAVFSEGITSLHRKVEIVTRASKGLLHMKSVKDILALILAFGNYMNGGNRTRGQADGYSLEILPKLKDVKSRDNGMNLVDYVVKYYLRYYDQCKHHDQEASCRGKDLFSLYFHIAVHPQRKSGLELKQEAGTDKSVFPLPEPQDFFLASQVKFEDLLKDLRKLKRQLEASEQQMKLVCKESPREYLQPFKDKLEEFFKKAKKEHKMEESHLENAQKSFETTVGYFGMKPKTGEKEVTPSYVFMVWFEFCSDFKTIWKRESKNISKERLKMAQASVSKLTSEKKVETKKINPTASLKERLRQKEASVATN

B1: FH1 FMN1 (amino acids 870–970) (domain or fragment, mouse, UniProt Q05860 870-970, looked up)
chain: PPAPPTPPPLPPPLIPPPPPLPPGLGPLPPAPPIPPVCPVSPPPPPPPPPPTPVPPSDGPPPPPPPPPPLPNVLALPNSGGPPPPPPPPPPGLAPPPPPGL
B2: WW1 FNBP4 (amino acids 214–430) (domain or fragment, UniProt Q8N3X1 214-430, looked up)
chain: GIEMGDWQEVWDENTGCYYYWNTQTNEVTWELPQYLATQVQGLQHYQPSSVPGAETSFVVNTDIYSKEKTISVSSSKSGPVIAKREVKKEVNEGIQALSNSEEEKKGVAASLLAPLLPEGIKEEEERWRRKVICKEEPVSEVKETSTTVEEATTIVKPQEIMLDNIEDPSQEDLCSVVQSGESEEEEEQDTLELELVLERKKAELRALEEGDGSVSG
B3: N-terminal WW1-WW2 FNBP4 (amino acids 214–629) (domain or fragment, UniProt Q8N3X1 214-629, looked up)
chain: GIEMGDWQEVWDENTGCYYYWNTQTNEVTWELPQYLATQVQGLQHYQPSSVPGAETSFVVNTDIYSKEKTISVSSSKSGPVIAKREVKKEVNEGIQALSNSEEEKKGVAASLLAPLLPEGIKEEEERWRRKVICKEEPVSEVKETSTTVEEATTIVKPQEIMLDNIEDPSQEDLCSVVQSGESEEEEEQDTLELELVLERKKAELRALEEGDGSVSGSSPRSDISQPASQDGMRRLMSKRGKWKMFVRATSPESTSRSSSKTGRDTPENGETAIGAENSEKIDENSDKEMEVEESPEKIKVQTTPKVEEEQDLKFQIGELANTLTSKFEFLGINRQSISNFHVLLLQTETRIADWREGALNGNYLKRKLQDAAEQLKQYEINATPKGWSCHWDRDHRRYFYVNEQSGESQWEFPDG

In assay [1] the target is B3. Put plainly: SPR.
In assay [2] the target is T1, C-terminal FH1-FH2 FMN1 (amino acids …). Put plainly: SPR.

A word on the Kd: it is the constant that tells how readily two partners part at equilibrium. High values mean weaker binding, low ones tighter binding. A word on the koff: it is a measure of how fast the partners let go of each other. In general, kon refers to the rate constant with which the complex forms. In assay [1], B1 gave a Kd of 0.56 nM, a koff of 0.0107 s⁻¹ and a kon of 1.94e+07 M⁻¹ s⁻¹.
Regarding B2, in assay [2], the Kd is 2 nM, the dissociation rate constant (koff) was found to be 0.00127 s⁻¹ and the on-rate constant (kon) amounted to 637000 M⁻¹ s⁻¹.
The matching figures for B3: 1.84 nM, 0.000571 s⁻¹ and 310000 M⁻¹ s⁻¹.
